Square brackets hold non-standard residues; d marks the D form. Ends that are not written are not given here. pY = N[C@@H](Cc1ccc(OP(=O)(O)O)cc1)C(=O)O; Ahx = NCCCCCC(=O)O
Tests used:
[1] = biological target: Grb2 SH2 domain, 58-159 (UniProt P62993); test: immobilised peptide pull-down, anti-GST blot; details: reference: unphosphorylated Y4507 peptide; sites Y4507
[2] = biological target: PLCγ-1 C SH2 domain, 663-759 (UniProt P19174); test: immobilised peptide pull-down, anti-GST blot; details: reference: unphosphorylated Y4507 peptide; sites Y4507
[3] = biological target: PLCγ-1 N SH2 domain, 544-659 (UniProt P19174); test: immobilised peptide pull-down, anti-GST blot; details: reference: unphosphorylated Y4507 peptide; sites Y4507
[4] = biological target: Shp-2 (Shp2) SH2(C) domain (UniProt Q06124); test: immobilised peptide pull-down, anti-ubiquitin tag blot; details: reference: unphosphorylated Y4507 peptide; sites Y4507
[5] = biological target: Shp-2 (Shp2) SH2(N) domain (UniProt Q06124); test: as above; details: reference: unphosphorylated Y4507 peptide; sites Y4507
[6] = biological target: CSK, His tagged (UniProt P41240); test: immobilised peptide pull-down, anti-CSK blot; details: reference: unphosphorylated Y4507 peptide; sites Y4507
[7] = biological target: T1, GST tagged N SH2 domain of PLCγ-1 (544–659) (human, UniProt P19174 544-659); test: pull-down
T1 sequence (looked up): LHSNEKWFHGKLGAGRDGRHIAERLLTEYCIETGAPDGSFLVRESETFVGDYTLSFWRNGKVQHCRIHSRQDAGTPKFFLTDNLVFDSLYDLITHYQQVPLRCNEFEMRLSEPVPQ

[8] = biological target: GST tagged SH2 domain of Grb2 (58–159) (human, UniProt P62993 58-159); test: pull-down
[9] = biological target: T2, GST tagged C SH2 domain of PLCγ-1 (663–759) (human, UniProt P19174 663-759); test: pull-down
T2 sequence (looked up): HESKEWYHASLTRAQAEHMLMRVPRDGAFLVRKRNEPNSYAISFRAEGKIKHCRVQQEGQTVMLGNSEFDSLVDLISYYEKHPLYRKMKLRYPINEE

In the case of “LDL receptor-related protein 1 (LRP1) NPXY4507 microdomain (from UniProt Q07954) pY4507 peptide”, the “binding against the reference” value [1] is reported as “stronger”, the “binding against the reference” value [2] is reported as “stronger” and the “binding against the reference” value [3] is reported as “stronger”. For the same molecule, the “binding against the reference” value [4] was “stronger”, the “binding against the reference” value [5] was “stronger” and the “binding against the reference” value [6] was “stronger”.

C[Ahx]TNFTNPV[pY]ATLY [NPXpY_(4507) microdomain of LRP1-CT, tyrosine-phosphorylated]: binds [7]; binds [8]; binds [9].
